{"source": "patent US9624471B2", "about": "“Methods for maturing cardiomyocytes and uses thereof” (UNIVERSITY OF WASHINGTON THROUGH ITS CENTER FOR …, priority 2013, dated 2017)", "molecules": {"B1": {"name": "let-7g: human let-7 family miRNA, SEQ ID NO: 9, overexpressed from pLKO lentiviral pri-miR-let-7g construct (nucleic acid, listed as Homo sapiens)", "chain": "AGGCUGAGGUAGUAGUUUGUACAGUUUGAGGGUCUAUGAUACCACCCGGUACAGGAGAUAACUGUACAGGCCACUGCCUUGCCA"}}, "system": "let-7g OE CMs", "experiment": "Whole genome transcriptome profiling (ILLUMINA RNA sequencing) of let-7g OE CMs vs. EV control CMs", "assay_type": "cell-based, human", "excerpt": "To further understand the effects of let-7 OE during cardiomyocyte maturation at a molecular level, the inventors carried out whole genome transcriptome profiling of let-7g OE CMs and corresponding EV control CMs using an ILLUMINA™ RNA sequencing platform. […] Using expression values for the genes that belonged to the 12 pathways (FIG. 1E), the inventors carried out a 2D-PCA comparing let-7g OE CMs and EV control CMs with H7-CMs at day 20 and 1 yr, IMR90iPSC-CMs at 1 yr and 3 month old HFA and HFV samples. […] Further evidence of let-7g directed maturation was observed from known isoform changes accompanying cardiomyocyte maturation, such as shifts in myosin heavy chain (MYH6/MYH7)^29 (FIG. 13). […] Focusing on the 34 differentially spliced genes in common among H7-CM-1yr, let-7 OE and fetal samples (FIG. 4C), the inventors identified the single transcript of each showing the greatest absolute change in proportion between H7-CM day 20 and the above three samples (data not shown). […] The same pattern emerges from analysis of the relative expression levels of all 377 isoforms (data not shown) of these 34 genes again showing that the developmental chronology of the samples is well captured by principal component 1. In short, there are concerted and dynamic changes in splicing during maturation. The fact that both differential splicing and differential expression analyses cluster let-7 OE CMs with H71yr-CM and fetal samples, clearly strengthens the finding that let-7 is critical for maturation.\nTotal RNAs for HFA and HFV samples were extracted using RNAeasy mini kit (QIAGEN™)^7. Total RNAs for all other samples were extracted with MIRNEASY™ mini kit (QIAGEN™) and were further DNAse treated with DNA-free kit (AMBION™). RNA and Small RNA libraries were prepared independently using TRUSEQ™ library preparation kits (ILLUMINA™) following the manufacturer's protocols. […] Sequence data for miRNAs were analyzed using miRDeep2™ software^8. […] For mRNA sequencing analysis, mRNA reads from samples were mapped to hg19 reference genome using STAR version 2.3.010. BAM files produced by STAR were analyzed with Cufflinks version 2.1.1_11 run in de novo mode. […]\nGene and transcript abundance was estimated using Markov chain Monte Carlo to sample from a hierarchical Bayesian model. […] Under this model, estimates from transcripts with very low data are effectively shrunk towards each other to avoid spuriously highfold-change estimates that can occur when using simple read or fragment count estimates. Expression estimates, measured in transcripts per million (TPM), and adjusted using upper quantile normalization^12, were generated for the Ensembl 74 gene annotation database^13.\nSeparately, statistical significance of differential expression at the gene level was analyzed using DESeq^14. […]"}
{"molecule": "B1", "values": [{"measurement": "maturation markers RYR2, MYH7, KCNJ2 expression", "setting": "RNA sequencing, compared to EV control", "result": "increased expression"}, {"measurement": "FA metabolism (gene expression, density plots)", "setting": "in comparison to EV control", "result": "significantly up-regulated"}, {"measurement": "PI3/AKT/Insulin signaling (gene expression, density plots)", "setting": "in comparison to EV control", "result": "significantly down-regulated"}, {"measurement": "position in dimension 1 of 2D-PCA (genes of 12 pathways)", "setting": "vs. H7-CMs day 20 and 1 yr, EV control", "result": "closer to 1 yr than the EV and day 20 CMs"}]}
